Changes are numbered by the printed parent chain. One block for each binder: values may come before it.
How the values were obtained:
[1] = target: T1, cynomolgus monkey FcγRIIa1 extracellular domain, His-tagged (cynomolgus monkey); assay: SPR, antibody captured, FcgR analyte
T1 construct: also called cyno FcγRIIa1; cynoFcgRIIa1
T1 chain: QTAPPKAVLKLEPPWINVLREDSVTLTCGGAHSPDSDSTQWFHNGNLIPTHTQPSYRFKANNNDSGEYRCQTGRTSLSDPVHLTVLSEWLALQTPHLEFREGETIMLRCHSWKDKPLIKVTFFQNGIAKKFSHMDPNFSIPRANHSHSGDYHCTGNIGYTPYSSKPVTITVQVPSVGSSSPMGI
Procedure: (§1) The kinetic analysis of interactions between these antibodies and FcγR was carried out using BIACORE® T200 or BIACORE® 4000 (GE Healthcare). HBS-EP+ (GE Healthcare) was used as the running buffer, and the measurement temperature was set to 25° C. A chip produced by immobilizing Protein A. Protein A/G or mouse anti-human IgG kappa light chain (BD Biosciences) onto a Series S Sensor Chip CM4 or CM5 (GE Healthcare) by the amine-coupling method was used. […] After the measurement, the antibody captured on the chip was washed off by allowing reaction with 10 mM glycine-HCl, pH1.5 and 25 mM NaOH so that the chip was regenerated and used repeatedly. The sensorgrams obtained as measurement results were analyzed by the 1:1 Langmuir binding model using the BIACORE® Evaluation Software to calculate the binding rate constant ka (L/mol/s) and dissociation rate constant kd (l/s), and the dissociation constant KD (mol/L) was calculated from these values. […] Regarding such interactions, KD values were calculated using the following 1:1 binding model described in BIACORE® T100 Software Handbook BR1006-48 Edition AE.
(§2) The behavior of interacting molecules according to the 1:1 binding model on BIACORE® can be described by Equation 1: Req=C·R max/(KD+C)+RI, wherein, Req is a plot of steady-state binding levels to analyte concentration. C is concentration, RI is bulk refractive index contribution in the sample, and Rmax is analyte binding capacity of the surface. When this equation is rearranged, KD can be expressed as Equation 2: KD=C·Rmax/(Req−RI)−C. KD can be calculated by substituting the values of Rmax, RI, and C into Equation 1 or Equation 2. From the current measurement conditions, RI=0, C=2 μmol/L can be used.

[2] = target: T2, cynomolgus monkey FcγRIIa3 extracellular domain, His-tagged (cynomolgus monkey); assay: SPR, antibody captured, FcgR analyte
T2 construct: also called cyno FcγRIIa3; cynoFcgRIIa3
T2 chain: T1 chain with P95T, T121A, A128S, H133P, D135N
Procedure: as §1, §2

[3] = target: T3, cynomolgus monkey FcγRIIIaS extracellular domain, His-tagged (cynomolgus monkey, UniProt Q8SPW2 21-206 at identity 1.00)); assay: SPR, antibody captured, FcgR analyte
T3 construct: also called cyno FcγRIIIaS; cynoFcγRIIIaS
T3 chain: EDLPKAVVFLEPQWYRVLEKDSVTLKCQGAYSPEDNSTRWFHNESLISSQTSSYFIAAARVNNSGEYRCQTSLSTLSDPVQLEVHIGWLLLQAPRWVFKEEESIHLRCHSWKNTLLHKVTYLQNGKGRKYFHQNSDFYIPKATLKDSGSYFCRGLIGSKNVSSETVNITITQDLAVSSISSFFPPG
Procedure: as §1, §2

[4] = target: T4, human FcγRIIb extracellular domain, His-tagged (human, UniProt P31994 43-217); assay: SPR, antibody captured, FcgR analyte
T4 construct: also called FcgRIIb (human)
T4 sequence: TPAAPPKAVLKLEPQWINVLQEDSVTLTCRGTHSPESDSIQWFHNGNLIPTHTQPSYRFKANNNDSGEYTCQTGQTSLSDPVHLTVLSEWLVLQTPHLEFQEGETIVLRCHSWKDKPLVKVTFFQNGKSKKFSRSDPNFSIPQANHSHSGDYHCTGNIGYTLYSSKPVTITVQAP
Procedure: as §1, §2

[5] = target: T5, human FcγRIIaH extracellular domain, His-tagged (human, UniProt P12318 34-217); assay: SPR, antibody captured, FcgR analyte
T5 construct: also called human FcγRIIa (type H); FcgRIIaH
T5 sequence: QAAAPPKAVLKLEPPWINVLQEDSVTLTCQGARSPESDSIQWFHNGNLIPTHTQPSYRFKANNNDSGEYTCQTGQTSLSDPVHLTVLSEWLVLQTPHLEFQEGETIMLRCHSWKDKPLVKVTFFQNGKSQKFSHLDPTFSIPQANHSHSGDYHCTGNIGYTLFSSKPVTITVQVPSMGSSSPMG
Procedure: as §1, §2

[6] = target: T6, human FcγRIIaR extracellular domain, His-tagged (human, UniProt P12318 34-217); assay: SPR, antibody captured, FcgR analyte
T6 construct: also called human FcγRIIa (type R); FcgRIIaR
T6 chain: T5 sequence with H134R
Procedure: as §1, §2

[7] = target: T7, human FcγRIIIaV extracellular domain, His-tagged (human, UniProt P08637 17-208); assay: SPR, antibody captured, FcgR analyte
T7 construct: also called FcgRIIIaV
T7 sequence (P08637 17-208 F176V): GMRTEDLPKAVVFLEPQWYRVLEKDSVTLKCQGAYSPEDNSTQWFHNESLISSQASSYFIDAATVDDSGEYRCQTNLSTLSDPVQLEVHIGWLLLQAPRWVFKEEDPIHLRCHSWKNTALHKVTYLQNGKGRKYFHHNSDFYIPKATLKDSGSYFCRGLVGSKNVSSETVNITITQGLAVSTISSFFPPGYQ
Procedure: as §1, §2

[8] = target: T8, cynomolgus monkey FcγRIIa2 extracellular domain, His-tagged (cynomolgus monkey); assay: SPR, antibody captured, FcgR analyte
T8 construct: also called cyno FcγRIIa2; cynoFcgRIIa2
T8 chain: T1 chain with P95T, T121A, I127K, A128S, K130N, D135N, R142Q
Procedure: as §1, §2

[9] = target: T9, cynomolgus monkey FcγRIIa3 extracellular domain, C-terminal His-tag (cynomolgus monkey); assay: SPR (Biacore), antibody captured, FcgR analyte, 25 C
T9 construct: also called cyno FcγRIIa3; cynoFcgRIIa3; not shown: His-tag added to C-terminus
T9 chain: T1 chain with P95T, T121A, A128S, H133P, D135N
Procedure: as §1, §2

[10] = target: T10, human FcγRIIIaV extracellular domain, C-terminal His-tag (human, UniProt P08637 17-208); assay: as above
T10 construct: also called FcgRIIIaV; not shown: His-tag added to C-terminus
T10 sequence (P08637 17-208 F176V): as above
Procedure: as §1, §2

[11] = target: T11, cynomolgus monkey FcγRIIIaS extracellular domain, C-terminal His-tag (cynomolgus monkey, UniProt A3RFZ7 21-206 (rhesus entry)); assay: as above
T11 construct: also called cyno FcγRIIIaS; cynoFcγRIIIaS; not shown: His-tag added to C-terminus
Procedure: as §1, §2

[12] = target: T12, cynomolgus monkey FcγRIIb extracellular domain, C-terminal His-tag (cynomolgus monkey); assay: as above
T12 construct: also called cyno FcγRIIb; cynoFcγRIIb; not shown: His-tag added to C-terminus
T12 chain: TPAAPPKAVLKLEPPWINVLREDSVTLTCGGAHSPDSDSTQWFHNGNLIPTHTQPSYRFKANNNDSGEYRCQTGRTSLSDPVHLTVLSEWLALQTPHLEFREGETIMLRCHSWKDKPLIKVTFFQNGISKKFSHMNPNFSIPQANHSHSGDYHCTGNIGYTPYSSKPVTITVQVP
Procedure: as §1, §2

[13] = target: T13, human FcγRIIb extracellular domain, C-terminal His-tag (human, UniProt P31994 43-217); assay: as above
T13 construct: also called FcgRIIb (human); not shown: His-tag added to C-terminus
T13 sequence: T4 sequence
Procedure: as §1, §2

[14] = target: T14, human FcγRIIaH extracellular domain, C-terminal His-tag (human, UniProt P12318 34-217); assay: as above
T14 construct: also called human FcγRIIa (type H); FcgRIIaH; not shown: His-tag added to C-terminus
T14 sequence: T5 sequence
Procedure: as §1, §2

[15] = target: T15, human FcγRIIaR extracellular domain, C-terminal His-tag (human, UniProt P12318 34-217); assay: as above
T15 construct: also called human FcγRIIa (type R); FcgRIIaR; not shown: His-tag added to C-terminus
T15 chain: T5 sequence with H134R
Procedure: as §1, §2

[16] = target: T16, cynomolgus monkey FcγRIIa1 extracellular domain, C-terminal His-tag (cynomolgus monkey); assay: as above
T16 construct: also called cyno FcγRIIa1; cynoFcgRIIa1; not shown: His-tag added to C-terminus
T16 chain: T1 chain
Procedure: as §1, §2

[17] = target: T17, cynomolgus monkey FcγRIIa2 extracellular domain, C-terminal His-tag (cynomolgus monkey); assay: as above
T17 construct: also called cyno FcγRIIa2; cynoFcgRIIa2; not shown: His-tag added to C-terminus
T17 chain: T1 chain with P95T, T121A, I127K, A128S, K130N, D135N, R142Q
Procedure: as §1, §2

[18] = target: T18, cynomolgus monkey FcγRIIb extracellular domain, His-tagged (cynomolgus monkey); assay: SPR, antibody captured, FcgR analyte
T18 construct: also called cyno FcγRIIb; cynoFcγRIIb
T18 chain: T12 chain
Procedure: as §1, §2

Kd [9]: 5300 nM | Kd [10]: 9900 nM | Kd [11]: 4300 nM | Kd [12]: 1000 nM | Kd [13]: 170 nM | Kd [14]: 350 nM | Kd [15]: 200 nM | Kd [16]: 3400 nM | Kd [17]: 4800 nM
B2: M103205H795-MY327/M103202L889-SK1 (antibody, human IgG1, kappa)
heavy: QVTLKESGPVLVKPTETLTLTCTVSGIDLSHDDISWVRQAPGKGLEWVGIISYAGSTYYASWAKGRLTISKDTSKNQVVLTMTNMDPVDTATYYCARGVPAYSHGGDLWGQGTLVTVSSASTKGPSVFPLAPSSKSTSGGTAALGCLVKDYFPEPVTVSWNSGALTSGVHTFPAVLQSSGLYSLSSVVTVPSSSLGTQTYICNVNHKPSNTKVDKKVEPKSCDKTHTCPPCPAPELLDGPSVFLFPPKPKDTLMISRTPEVTCVVVDVSEEDPEVKFNWYVDGVEVHNAKTKPREELYNSTYRVVSVLTVLHQDWLNGKEYKCKVSNKALPKPIEKTISKAKGQPREPQVYTLPPSREEMTKNQVSLTCLVKGFYPSDIAVEWESNGQPENNYKTTPPVLDSDGSFFLYSKLTVDKSRWQQGNVFSCSVMHEALHNHYTQKSLSLSP
light: DIVMTQSPATLSLSPGERATLSCTSSQSVYHANWLSWFQQKPGQPPKLLIYWASTLAYGVPSRFSGSGSGTDFTLTISSLQPEDAATYYCAGGYGGGRYAFGQGTKVEIKRTVAAPSVFIFPPSDEQLKSGTASVVCLLNNFYPREAKVQWKVDNALQSGNSQESVTEQDSKDSTYSLSSTLTLSKADYEKHKVYACEVTHQGLSSPVTKSFNRGEC

Kd [9]: 3700 nM | Kd [10]: 6400 nM | Kd [11]: 2300 nM | Kd [12]: 590 nM | Kd [13]: 160 nM | Kd [14]: 270 nM | Kd [15]: 210 nM | Kd [16]: 1900 nM | Kd [17]: 3200 nM
B4: M103205H795-MY329/M103202L889-SK1 (antibody, human IgG1, kappa)
heavy: B2 heavy with E270D
light: B2 light

Continued, binder first:

B1: M103205H795-MY015/M103202L889-SK1 (antibody, human IgG1, kappa)
heavy: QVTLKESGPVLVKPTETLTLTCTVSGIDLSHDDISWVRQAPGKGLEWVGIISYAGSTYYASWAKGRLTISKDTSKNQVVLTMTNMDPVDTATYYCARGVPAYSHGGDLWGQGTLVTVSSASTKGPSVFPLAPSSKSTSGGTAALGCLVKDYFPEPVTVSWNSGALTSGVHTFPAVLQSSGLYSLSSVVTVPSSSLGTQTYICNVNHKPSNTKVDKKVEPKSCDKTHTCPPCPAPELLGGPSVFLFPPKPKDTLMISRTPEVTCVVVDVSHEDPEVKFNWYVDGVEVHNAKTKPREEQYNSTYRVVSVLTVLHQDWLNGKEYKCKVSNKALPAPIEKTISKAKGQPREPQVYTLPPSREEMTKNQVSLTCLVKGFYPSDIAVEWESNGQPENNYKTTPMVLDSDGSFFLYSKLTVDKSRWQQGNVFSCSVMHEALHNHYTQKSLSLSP
light: B2 light
notes: Substitution put into M103205H795-SG1
Kd [1]: 1300 nM | Kd [2]: 4700 nM | Kd [3]: 100 nM | Kd [4]: 1600 nM | Kd [5]: 330 nM | Kd [6]: 320 nM | Kd [7]: 240 nM | Kd [8]: 1500 nM

B3: M103205H795-MY067/M103202L889-SK1 (antibody, human IgG1, kappa)
heavy: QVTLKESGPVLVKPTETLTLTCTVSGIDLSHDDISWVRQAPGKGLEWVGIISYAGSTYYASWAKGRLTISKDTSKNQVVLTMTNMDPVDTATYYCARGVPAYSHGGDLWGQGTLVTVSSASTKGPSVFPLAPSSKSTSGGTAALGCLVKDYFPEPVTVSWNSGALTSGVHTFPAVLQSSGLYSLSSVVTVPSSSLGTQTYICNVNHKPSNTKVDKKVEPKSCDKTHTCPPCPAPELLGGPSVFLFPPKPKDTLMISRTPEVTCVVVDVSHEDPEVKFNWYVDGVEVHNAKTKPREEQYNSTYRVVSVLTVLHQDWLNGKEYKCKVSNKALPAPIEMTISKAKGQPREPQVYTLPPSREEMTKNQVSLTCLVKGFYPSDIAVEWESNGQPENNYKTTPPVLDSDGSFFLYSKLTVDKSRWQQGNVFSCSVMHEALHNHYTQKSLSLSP
light: B2 light
notes: as for B1
Kd [18]: 1100 nM | Kd [1]: 2100 nM | Kd [2]: 6700 nM | Kd [3]: 100 nM | Kd [4]: 2800 nM | Kd [5]: 530 nM | Kd [6]: 760 nM | Kd [7]: 200 nM | Kd [8]: 2300 nM

B5: M103205H795-MY066/M103202L889-SK1 (antibody, human IgG1, kappa)
heavy: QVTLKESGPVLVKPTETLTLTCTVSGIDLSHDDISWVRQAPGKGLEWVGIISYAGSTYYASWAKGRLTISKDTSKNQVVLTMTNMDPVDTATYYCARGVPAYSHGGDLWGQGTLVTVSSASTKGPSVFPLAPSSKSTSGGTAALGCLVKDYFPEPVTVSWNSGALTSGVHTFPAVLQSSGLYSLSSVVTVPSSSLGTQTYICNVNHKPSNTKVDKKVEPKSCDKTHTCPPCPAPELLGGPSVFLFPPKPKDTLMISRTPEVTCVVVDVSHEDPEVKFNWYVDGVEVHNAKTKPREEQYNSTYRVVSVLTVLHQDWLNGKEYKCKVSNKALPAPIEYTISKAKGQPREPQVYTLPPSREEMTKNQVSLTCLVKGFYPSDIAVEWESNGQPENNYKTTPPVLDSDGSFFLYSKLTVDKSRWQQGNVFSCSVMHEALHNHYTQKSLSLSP
light: B2 light
notes: as for B1
Kd [18]: 1400 nM | Kd [1]: 2100 nM | Kd [2]: 5700 nM | Kd [3]: 160 nM | Kd [4]: 2800 nM | Kd [5]: 640 nM | Kd [6]: 970 nM | Kd [7]: 290 nM | Kd [8]: 2800 nM

Reference: patent US20200317768A1 (published 2020)
